In PMC4835703 one finds Kd data, which are given here for one substance.

The target of experiment [1] is MD2-GFP (UniProt Q9Y6Y9). As to the kind of experiment: MST; secreted MD2-GFP in the culture supernatant of transfected 293 cells grown in suspension; CnB titrated in 16 1:1 dilutions.
The target in experiment [2] is CD14-GFP (full-length membrane-anchored CD14 from transfected HEK293 lysates) (UniProt P08571). Kind of experiment: MST; GFP-tagged receptors in lysates of transfected HEK293 cells (RIPA buffer), diluted according to fluorescence intensity; CnB titrated in 16 1:1 dilutions; 25 °C.
Chain of CD14-GFP (full-length membrane-anchored CD14 from transfected HEK293 lysates) (P08571 20-367): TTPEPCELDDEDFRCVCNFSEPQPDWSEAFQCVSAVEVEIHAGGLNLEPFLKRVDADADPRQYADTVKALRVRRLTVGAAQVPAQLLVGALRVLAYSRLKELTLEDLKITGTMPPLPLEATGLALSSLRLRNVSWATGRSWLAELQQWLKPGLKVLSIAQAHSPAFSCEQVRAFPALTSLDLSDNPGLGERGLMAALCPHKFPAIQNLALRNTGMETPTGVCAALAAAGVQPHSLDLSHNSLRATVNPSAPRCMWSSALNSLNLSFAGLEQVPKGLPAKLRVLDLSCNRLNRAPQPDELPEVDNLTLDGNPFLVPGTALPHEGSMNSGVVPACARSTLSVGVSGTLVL
The target of experiment [3] is MD2-GFP (UniProt Q9Y6Y9). The description is as above.
Experiment [4] has as its target TLR4-GFP (full-length TLR4 from transfected HEK293 lysates) (UniProt O00206). The description is as above.

Chain of recombinant calcineurin B (P63098 whole entry): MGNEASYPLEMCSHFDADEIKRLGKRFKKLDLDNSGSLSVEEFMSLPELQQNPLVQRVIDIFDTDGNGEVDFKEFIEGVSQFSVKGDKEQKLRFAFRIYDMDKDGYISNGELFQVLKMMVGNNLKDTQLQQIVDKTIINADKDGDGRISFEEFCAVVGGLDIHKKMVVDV
Chain of MD2-GFP (Q9Y6Y9 19-160): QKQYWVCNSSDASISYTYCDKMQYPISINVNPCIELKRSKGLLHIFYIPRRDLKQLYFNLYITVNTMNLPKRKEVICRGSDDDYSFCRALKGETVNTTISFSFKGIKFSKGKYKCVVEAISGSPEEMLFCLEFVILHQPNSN
Chain of TLR4-GFP (full-length TLR4 from transfected HEK293 lysates) (O00206 24-839): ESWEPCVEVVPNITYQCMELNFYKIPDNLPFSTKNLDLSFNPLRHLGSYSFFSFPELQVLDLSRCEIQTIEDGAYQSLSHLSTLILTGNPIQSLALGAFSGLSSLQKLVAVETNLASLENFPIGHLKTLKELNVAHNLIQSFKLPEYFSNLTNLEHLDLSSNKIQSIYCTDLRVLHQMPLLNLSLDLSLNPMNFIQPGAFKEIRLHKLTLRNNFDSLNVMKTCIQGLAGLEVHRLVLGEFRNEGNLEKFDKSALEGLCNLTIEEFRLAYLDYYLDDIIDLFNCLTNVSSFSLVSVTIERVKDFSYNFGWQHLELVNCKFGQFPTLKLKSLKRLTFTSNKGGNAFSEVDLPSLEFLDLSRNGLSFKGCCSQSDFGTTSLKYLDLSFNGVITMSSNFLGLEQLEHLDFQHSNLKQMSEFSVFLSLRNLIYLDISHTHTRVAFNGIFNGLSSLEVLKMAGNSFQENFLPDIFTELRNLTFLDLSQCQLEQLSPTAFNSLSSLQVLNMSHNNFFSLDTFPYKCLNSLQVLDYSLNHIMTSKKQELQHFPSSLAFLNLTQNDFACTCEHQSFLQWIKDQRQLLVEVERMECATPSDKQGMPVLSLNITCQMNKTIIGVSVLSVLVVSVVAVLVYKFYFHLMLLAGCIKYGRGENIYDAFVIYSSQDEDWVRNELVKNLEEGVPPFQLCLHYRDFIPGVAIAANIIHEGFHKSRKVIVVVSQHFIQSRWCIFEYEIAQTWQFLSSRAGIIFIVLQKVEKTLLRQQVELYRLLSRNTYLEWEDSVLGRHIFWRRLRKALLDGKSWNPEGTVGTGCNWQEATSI

Turning to “recombinant calcineurin B (from UniProt P63098 1-170) (natural protein; other documents disagree on this pair)”, the Kd in the experiment with MD2-GFP [1] was 74 µM; in experiment [2] it was 34.8 µM; in the experiment with MD2-GFP [3] it was 7.43 µM; in experiment [4], 6.5 µM.
